For experiment [1], the target named is T1, mouse CD45 on the surface of mouse T cells (mouse, UniProt P06800 26-1293).
T1 construct: whole, on cells
T1 sequence (looked up): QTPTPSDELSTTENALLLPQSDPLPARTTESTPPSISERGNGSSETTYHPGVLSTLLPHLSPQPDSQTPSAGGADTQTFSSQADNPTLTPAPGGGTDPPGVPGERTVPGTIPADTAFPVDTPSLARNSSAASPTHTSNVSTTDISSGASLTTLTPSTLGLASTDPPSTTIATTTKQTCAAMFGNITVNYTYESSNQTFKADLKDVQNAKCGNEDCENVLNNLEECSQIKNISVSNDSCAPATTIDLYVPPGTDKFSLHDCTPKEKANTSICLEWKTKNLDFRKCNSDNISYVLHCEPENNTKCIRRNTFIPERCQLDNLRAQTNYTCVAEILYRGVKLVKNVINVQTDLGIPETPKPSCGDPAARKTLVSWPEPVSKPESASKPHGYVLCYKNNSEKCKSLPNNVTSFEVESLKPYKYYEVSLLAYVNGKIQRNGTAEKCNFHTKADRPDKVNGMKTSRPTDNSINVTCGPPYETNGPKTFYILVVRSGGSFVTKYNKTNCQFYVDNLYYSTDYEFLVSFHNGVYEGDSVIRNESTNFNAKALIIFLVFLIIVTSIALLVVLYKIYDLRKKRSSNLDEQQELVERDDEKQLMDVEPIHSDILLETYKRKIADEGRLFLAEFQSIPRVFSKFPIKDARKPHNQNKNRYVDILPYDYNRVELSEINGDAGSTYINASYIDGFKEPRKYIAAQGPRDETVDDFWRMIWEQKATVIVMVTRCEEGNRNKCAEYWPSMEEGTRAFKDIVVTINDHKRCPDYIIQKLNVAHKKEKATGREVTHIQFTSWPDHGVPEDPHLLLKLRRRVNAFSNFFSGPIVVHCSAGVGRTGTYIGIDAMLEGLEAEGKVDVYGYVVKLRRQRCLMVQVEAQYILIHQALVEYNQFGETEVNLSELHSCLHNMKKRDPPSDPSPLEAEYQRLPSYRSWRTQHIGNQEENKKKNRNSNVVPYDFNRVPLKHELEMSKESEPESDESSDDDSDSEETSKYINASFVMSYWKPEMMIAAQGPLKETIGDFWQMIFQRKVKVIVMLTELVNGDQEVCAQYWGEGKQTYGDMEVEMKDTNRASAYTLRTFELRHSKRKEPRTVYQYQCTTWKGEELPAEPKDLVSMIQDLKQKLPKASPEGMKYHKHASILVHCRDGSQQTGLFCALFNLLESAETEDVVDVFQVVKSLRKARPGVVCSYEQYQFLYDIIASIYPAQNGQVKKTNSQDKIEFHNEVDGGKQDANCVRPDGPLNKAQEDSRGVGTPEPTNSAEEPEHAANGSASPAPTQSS
Kind of experiment: pulse incubation at 125 nM on activated mouse CD8 T cells, anti-mouse IL-12 staining by flow cytometry (FIG. 32). The method, then: We evaluated the ability of tethered fusions comprising an antibody specific for mouse CD45 and the mouse scIL-12p70 cytokine to facilitate loading and persistence of IL-12 on the surface of mouse T cells. Prior to incubation with the mouse IL12-TFs, mouse CD8 T cells were isolated from Pmel mice, activated for two days using antibodies against mouse CD3 and CD28 receptors, and then expanded in the presence of IL-21 for two days. Briefly, isolated CD8 T cells were incubated in full medium (containing RPMI 1640, 10% FBS, insulin-transferrin-selenium, penicillin/streptomycin, and 50 uM beta-mercaptoethanol) in Nunc HighBind plates that were previously coated with antibodies against mouse CD3 and CD28 receptors; the CD3 and CD28 antibodies were coated at concentrations of 0.5 ug/mL and 5 ug/mL, respectively. After approximately 24 hr incubation on the antibody-coated plates IL-2 and IL-7 were added to a final concentrations of 20 ng/mL and 0.5 ng/mL respectively. After a second day of incubation, cells were recovered from the antibody-coated plates and diluted to a density of approximately 200,000 cells/mL into medium containing IL-21 at a final concentration of 20 ng/mL. […] On Days 0, 1, 3, and 5 after the pulse incubation cells were immunostained using antibodies specific to mouse IL-12 and analyzed on a FACSCelesta using Diva Software; data was analyzed using FlowJo. […]

The target of experiment [2] is T2, human CD45 receptor on the surface of human T cells (human, UniProt P08575 26-1306).
T2 construct: whole, on cells; also called cellular CD45; leukocyte common antigen
T2 sequence (looked up): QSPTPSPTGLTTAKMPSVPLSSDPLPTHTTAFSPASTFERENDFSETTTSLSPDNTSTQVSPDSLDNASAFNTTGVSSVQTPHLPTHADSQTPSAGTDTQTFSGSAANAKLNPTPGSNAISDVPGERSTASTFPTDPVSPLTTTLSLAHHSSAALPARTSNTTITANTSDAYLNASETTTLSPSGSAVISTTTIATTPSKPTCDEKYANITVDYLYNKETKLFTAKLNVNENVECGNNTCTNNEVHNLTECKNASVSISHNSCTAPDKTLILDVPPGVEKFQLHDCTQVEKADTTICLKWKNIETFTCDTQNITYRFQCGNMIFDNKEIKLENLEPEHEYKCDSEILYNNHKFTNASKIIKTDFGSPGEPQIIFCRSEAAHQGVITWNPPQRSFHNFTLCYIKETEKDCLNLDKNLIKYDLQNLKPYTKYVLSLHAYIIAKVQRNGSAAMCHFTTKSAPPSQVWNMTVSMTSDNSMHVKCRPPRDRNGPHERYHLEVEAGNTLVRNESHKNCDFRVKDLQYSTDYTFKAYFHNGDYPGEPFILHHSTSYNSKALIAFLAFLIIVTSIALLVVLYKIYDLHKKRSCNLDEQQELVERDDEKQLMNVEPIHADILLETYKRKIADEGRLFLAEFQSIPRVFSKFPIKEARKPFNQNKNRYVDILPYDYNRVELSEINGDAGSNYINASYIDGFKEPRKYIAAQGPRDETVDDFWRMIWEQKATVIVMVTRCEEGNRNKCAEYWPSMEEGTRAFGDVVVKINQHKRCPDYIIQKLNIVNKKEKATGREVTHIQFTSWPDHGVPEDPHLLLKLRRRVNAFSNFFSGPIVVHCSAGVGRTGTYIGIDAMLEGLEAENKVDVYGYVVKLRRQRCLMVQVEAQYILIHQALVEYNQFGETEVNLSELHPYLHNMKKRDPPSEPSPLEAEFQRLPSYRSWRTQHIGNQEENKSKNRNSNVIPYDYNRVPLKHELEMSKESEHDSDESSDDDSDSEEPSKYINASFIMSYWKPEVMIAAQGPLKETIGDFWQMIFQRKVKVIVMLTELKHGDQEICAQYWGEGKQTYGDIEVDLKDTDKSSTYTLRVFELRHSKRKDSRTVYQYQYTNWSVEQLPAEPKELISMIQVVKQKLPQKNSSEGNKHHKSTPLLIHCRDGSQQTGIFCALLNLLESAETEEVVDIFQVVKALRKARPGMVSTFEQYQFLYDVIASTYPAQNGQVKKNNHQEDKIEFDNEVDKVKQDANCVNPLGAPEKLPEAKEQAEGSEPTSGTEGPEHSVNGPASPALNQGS
Kind of experiment: flow cytometry titration on activated primary human CD8 T cells, anti-human IgG-Fc detection. The source says:
To evaluate whether anti-CD45 antibodies other than BC8 are capable of generating IFMs with improved potency, we evaluated two additional anti-CD45 monoclonal antibodies (mAb clones 9.4 and 4B2). We first evaluated the binding affinities of chimeric IgG forms of these antibodies to CD45 expressed on the surface of activated CD8 T cells. The chimeric antibodies each comprise mouse variable domains and human constant region (human constant kappa domain and human IgG4 containing an S228P mutation to stabilize the IgG4 hinge region). For comparison with previous results we evaluated these antibodies alongside chBC8, hBC8(23), and a non-binding variant hBC8-null. The humanized BC8 antibody consists of variable domains containing CDR regions grafted from BC8, and the hBC8-null variant contains an SGGGS substitution in the heavy-chain CDR3, which ablates binding to CD45 (FIG. 10A). […]
Cell binding assay. […] Cells were washed with MACS buffer (PBS, 2% FBS, 1 mM EDTA) three times, and antibody binding was detected using a PE-conjugated anti-human IgG-Fc antibody (BioLegend, cat. no. HP6017) for 20 min. at 4° C. […]

These results are taken from US20200330514A1 (TORQUE THERAPEUTICS, published 2020).

B1: chM1Fab-M1scFv-scIL-12p70 (other)
heavy: QVNLLQSGAALVKPGASVKLSCKASGYTFTDYYIHWVKQSHGKSLEWVAYINPDRDYTNYNEKFKSKATLTVDKSTNTAYMELSRLTSEDSATFYCTRRLYDGAYYYSWFAYWGQGTLVTVSSASTKGPSVFPLAPSSKSTSGGTAALGCLVKDYFPEPVTVSWNSGALTSGVHTFPAVLQSSGLYSLSSVVTVPSSSLGTQTYICNVNHKPSNTKVDKKVEPKSCGGGGSGGGGSGGGGSQVNLLQSGAALVKPGASVKLSCKASGYTFTDYYIHWVKQSHGKSLEWVAYINPDRDYTNYNEKFKSKATLTVDKSTNTAYMELSRLTSEDSATFYCTRRLYDGAYYYSWFAYWGQGTLVTVSSGGGGSGGGGSGGGGSGGGGSDIQMTQSPHSLSASLGETVSIECLASEGISNYLAWYQQKPGKSPQLLIYYGSRLQDGVPSRFSGSGSGTQYSLRITNMQPEDEGVYYCQQGYKYPYTFGAGTKLELK
light: DIQMTQSPHSLSASLGETVSIECLASEGISNYLAWYQQKPGKSPQLLIYYGSRLQDGVPSRFSGSGSGTQYSLRITNMQPEDEGVYYCQQGYKYPYTFGAGTKLELKRTVAAPSVFIFPPSDEQLKSGTASVVCLLNNFYPREAKVQWKVDNALQSGNSQESVTEQDSKDSTYSLSSTLTLSKADYEKHKVYACEVTHQGLSSPVTKSFNRGECGGGGSGGGGSGGGGSMWELEKDVYVVEVDWTPDAPGETVNLTCDTPEEDDITWTSDQRHGVIGSGKTLTITVKEFLDAGQYTCHKGGETLSHSHLLLHKKENGIWSTEILKNFKNKTFLKCEAPNYSGRFTCSWLVQRNMDLKFNIKSSSSSPDSRAVTCGMASLSAEKVTLDQRDYEKYSVSCQEDVTCPTAEETLPIELALEARQQNKYENYSTSFFIRDIIKPDPPKNLQMKPLKNSQVEVSWEYPDSWSTPHSYFSLKFFVRIQRKKEKMKETEEGCNQKGAFLVEKTSTEVQCKGGNVCVQAQDRYYNSSCSKWACVPCRVRSGGGGSGGGGSGGGGSGGGGSRVIPVSGPARCLSQSRNLLKTTDDMVKTAREKLKHYSCTAEDIDHEDITRDQTSTLKTCLPLELHKNESCLATRETSSTTRGSCLPPQKTSLMMTLCLGSIYEDLKMYQTEFQAINAALQNHNHQQIILDKGMLVAIDELMQSLNHNGETLRQKPPVGEADPYRVKMKLCILLHAFSTRVVTINRVMGYLSSA
Regarding B1, in experiment [1], the binding result is reported as “binds”.

B2: hBC8-null humanized BC8 antibody with SGGGS substitution in CDR-H3 (IgG form) (antibody, V domains shown)
VH: EVQLVESGGGLVQPGGSLRLSCAASGFDFSRYWMSWVRQAPGKGLEWIGEINPTSSTINFADSVKGRFTISRDNAKNSLYLQMNSVRDEDTAVYYCARGSGGGSGDAMDYWGQGTLVTVSS
VL: EIVLTQSPATLSLSLGERATISCRASKSVSTSGYSYLHWYQQKPGQAPKLLIYLASNRATGVPARFSGSGPGTDFTLTISSLEPEDFATYYCQHSRELPFTFGQGTKLEIK
notes: constant regions of the tested antibody not spelled out; also called hBC8(23)-null
For B2, the binding result in experiment [2] is “no binding (tested: 500 nM)”.
